For this series, the target named is T1, Ume6p (Saccharomyces cerevisiae, UniProt P39001 1-836).
T1 sequence: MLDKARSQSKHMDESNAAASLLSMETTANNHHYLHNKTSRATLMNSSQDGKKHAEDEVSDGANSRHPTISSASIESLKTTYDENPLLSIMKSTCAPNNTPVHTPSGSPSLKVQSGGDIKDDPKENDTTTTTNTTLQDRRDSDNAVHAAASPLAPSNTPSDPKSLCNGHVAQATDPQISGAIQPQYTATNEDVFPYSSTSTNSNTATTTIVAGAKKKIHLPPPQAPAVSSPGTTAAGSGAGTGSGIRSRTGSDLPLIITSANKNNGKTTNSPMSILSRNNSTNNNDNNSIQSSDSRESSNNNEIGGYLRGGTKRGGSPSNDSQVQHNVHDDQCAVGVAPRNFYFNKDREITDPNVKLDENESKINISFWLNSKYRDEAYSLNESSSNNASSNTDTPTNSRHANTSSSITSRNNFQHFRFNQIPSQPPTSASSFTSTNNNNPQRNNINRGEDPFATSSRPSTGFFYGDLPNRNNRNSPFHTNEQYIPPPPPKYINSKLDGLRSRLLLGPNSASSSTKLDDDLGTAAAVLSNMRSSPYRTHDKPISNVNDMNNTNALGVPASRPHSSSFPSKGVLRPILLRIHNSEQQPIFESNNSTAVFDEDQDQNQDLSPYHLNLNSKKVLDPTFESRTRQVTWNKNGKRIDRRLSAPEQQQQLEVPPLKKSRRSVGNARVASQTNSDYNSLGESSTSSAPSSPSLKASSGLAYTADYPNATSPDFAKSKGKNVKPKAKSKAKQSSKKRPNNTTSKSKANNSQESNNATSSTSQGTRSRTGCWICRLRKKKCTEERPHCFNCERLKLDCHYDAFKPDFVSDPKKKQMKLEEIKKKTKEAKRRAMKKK
Briefly: EMSA; EMSA buffer and temperature not given in material; protein dialyzed in 10 mM sodium phosphate pH 7.4, 50 mM NaCl, 10 uM ZnCl2. Conditions: protein: recombinant; tags: N-terminal 6xHis (pET14b); label: Cy5 on forward oligo.

B1: SPO13 URS1 probe, unmethylated (Spo13-Cy5-F/Spo13-R) (dsDNA)
DNA 1: TTAATTAGGAGTATATTGAGAAATAGCCGCCGACAAAAAGGAAGTCTCATAAAAGT
DNA 2: ACTTTTATGAGACTTCCTTTTTGTCGGCGGCTATTTCTCAATATACTCCTAATTAA
With B1, the binding result is “binds”.

The record behind these values is paper PMC8163762, “Impact of DNA methylation on 3D genome structure”.
